{
  "source": "patent US7314709B2",
  "about": "“Compositions and methods for detecting and quantifying COX-2 activity by lipoamino acid metabolism” (Vanderbilt University, priority 2002, dated 2008)",
  "key": {"[1]": {"target": "T1, ovine COX-1 (oCOX-1) (Ovis aries, UniProt P05979)", "T1 construct": "COX-1 was purified from ram seminal vesicles as previously described; tissue Oxford Biomedical Research; host or cells: ram seminal vesicles", "T1 sequence (P05979 25-600)": "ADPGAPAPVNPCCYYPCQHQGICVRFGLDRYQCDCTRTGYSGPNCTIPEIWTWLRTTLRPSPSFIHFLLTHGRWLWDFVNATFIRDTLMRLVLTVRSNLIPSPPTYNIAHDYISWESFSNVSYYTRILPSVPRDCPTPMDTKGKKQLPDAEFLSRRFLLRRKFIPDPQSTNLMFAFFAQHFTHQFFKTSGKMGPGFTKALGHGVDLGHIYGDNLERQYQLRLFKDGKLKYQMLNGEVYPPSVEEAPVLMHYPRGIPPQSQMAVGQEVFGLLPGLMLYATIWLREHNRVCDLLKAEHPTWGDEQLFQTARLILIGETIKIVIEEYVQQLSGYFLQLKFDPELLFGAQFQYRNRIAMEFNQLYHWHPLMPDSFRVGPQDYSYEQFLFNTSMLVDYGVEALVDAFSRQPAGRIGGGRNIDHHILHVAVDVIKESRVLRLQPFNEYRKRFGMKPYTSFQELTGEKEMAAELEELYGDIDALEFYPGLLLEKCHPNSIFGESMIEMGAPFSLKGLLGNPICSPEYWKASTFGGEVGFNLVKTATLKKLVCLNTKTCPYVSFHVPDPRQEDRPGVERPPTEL", "details": "compared with AA; cited from earlier work"}, "[2]": {"details": "mice [16,17]; cited from earlier work"}, "[3]": {"details": "rats [16,17]; cited from earlier work"}, "[4]": {"substrate": "CCCCC/C=C\\C/C=C\\C/C=C\\C/C=C\\CCCC(=O)O", "experiment": "Steady-state kinetics of COX-2 mediated oxygenation (oxygraph O2 uptake)", "format": "biochemical, murine", "details": "other: 50 nM COX-2, 100 mM Tris-HCl, 500 μM phenol", "method": "(§1) Enzymology: COX-1 was purified from ram seminal vesicles as previously described. Site-directed mutagenesis of COX-2 was performed as described previously. Recombinant COX-2 enzymes were expressed in Sf-9 insect cells and purified by ion-exchange chromatography and gel filtration as previously described. Apo-enzymes were reconstituted with hematin prior to activity assays. […] COX activity was quantified as previously described. Initial reaction velocity data were obtained from the linear portion of the oxygen uptake curves. Oxygraph data were analyzed by nonlinear regression with Enzyme Kinetics 1.5 software (Trinity Software, Campton, N.H.)."}, "[5]": {"substrate": "CCCCC/C=C\\C/C=C\\C/C=C\\C/C=C\\CCCCNCC(=O)O", "experiment": "Steady-state kinetics of COX-2 mediated oxygenation (oxygraph O2 uptake)", "format": "biochemical, murine", "details": "other: 50 nM COX-2, 100 mM Tris-HCl, 500 μM phenol", "method": "as §1"}},
  "data": [
    {"molecule": "CCCCC/C=C\\C/C=C\\C/C=C\\C/C=C\\CCCC(=O)OC(CO)CO", "note": "[2-AG, 2-arachidonlyglycerol]", "values": [
      {"measurement": "metabolism by COX-1", "setting": "[1]", "result": "much lesser extent than AA"}
    ]},
    {"molecule": "CCCCC/C=C\\C/C=C\\C/C=C\\C/C=C\\CCCC(=O)NCCO", "note": "[AEA, arachidonyl ethanolamide]", "values": [
      {"measurement": "metabolism by COX-1", "setting": "[1]", "result": "much lesser extent than AA"}
    ]},
    {"molecule": "CCCCC/C=C\\C/C=C\\C/C=C\\C/C=C\\CCCC(=O)NCCCC(=O)O", "note": "[δ-arachidonyl aminobutuyic acid]", "values": [
      {"measurement": "analgesia", "setting": "[2]", "result": "induce analgesia"},
      {"measurement": "formalin-induced tonic inflammatory pain", "setting": "[3]", "result": "suppresses formalin-induced tonic inflammatory pain"}
    ]},
    {"molecule": "Murine COX-2 (Mus musculus) (protein, made in house; host or cells: Sf-9 insect cells) ANPCCSNPCQNRGECMSTGFDQYKCDCTRTGFYGENCTTPEFLTRIKLLLKPTPNTVHYILTHFKGVWNIVNNIPFLRSLIMKYVLTSRSYLIDSPPTYNVHYGYKSWEAFSNLSYYTRALPPVADDCPTPMGVKGNKELPDSKEVLEKVLLRREFIPDPQGSNMMFAFFAQHFTHQFFKTDHKRGPGFTRGLGHGVDLNHIYGETLDRQHKLRLFKDGKLKYQVIGGEVYPPTVKDTQVEMIYPPHIPENLQFAVGQEVFGLVPGLMMYATIWLREHNRVCDILKQEHPEWGDEQLFQTSRLILIGETIKIVIEDYVQHLSGYHFKLKFDPELLFNQQFQYQNRIASEFNTLYHWHPLLPDTFNIEDQEYSFKQFLYNNSILLEHGLTQFVESFTRQIAGRVAGGRNVPIAVQAVAKASIDQSREMKYQSLNEYRKRFSLKPYTSFEELTGEKEMAAELKALYSDIDVMELYPALLVEKPRPDAIFGETMVELGAPFSLKGLMGNPICSPQYWKPSTFGGEVGFKIINTASIQSLICNNVKGCPFTSFNVQDPQPTKTATINASASHSRLDDINPTVLIKRRSTEL", "values": [
      {"measurement": "Km", "setting": "[4]", "result": "3.3 ± 1.0", "unit": "µM"},
      {"measurement": "kcat", "setting": "[4]", "result": "16.6 ± 1.7", "unit": "s⁻¹"},
      {"measurement": "kcat/Km", "setting": "[4]", "result": "5.08e+06", "unit": "M⁻¹ s⁻¹"},
      {"measurement": "Km", "setting": "[5]", "result": "11.7 ± 1.4", "unit": "µM"},
      {"measurement": "kcat", "setting": "[5]", "result": "6.3 ± 1.1", "unit": "s⁻¹"},
      {"measurement": "kcat/Km", "setting": "[5]", "result": 540000, "unit": "M⁻¹ s⁻¹"}
    ]}
  ]
}
